This series in a line: yeast display, Sf9 membrane polyspecificity reagent, FACS + sequencing; frameworks hold sequencing errors. The method, boiled down:
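Synthetic nanobody libraries on Saccharomyces cerevisiae BJ5465 were galactose-induced for 36–48 hours, stained 1 hour at 4 °C with 10% biotinylated, detergent-solubilized Sf9 membrane reagent and enriched on streptavidin microbeads. FACS then separated cells into low and high (top ~1%) gates by anti-HA (expression) and streptavidin (reagent binding) fluorescence. Genes were colony-PCR amplified, MiSeq 2 × 250 sequenced and CDR-length filtered. A clone's polyreactivity label is that of its gate of origin.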
In the case of “QVQLVESAGGLVQAGGSLRLSCAASGFIFYSNAMGWYRQAPGKERELVAGISRGGSTYYADSVKGRFTISRDNAKNTVYLQMNSLKPEDTAVYYCAASPSSYGRYGYWGQGTQVTVSS”, the “polyreactivity (PSR sort gate)” value is reported as “low polyreactivity”.
Turning to “QVQLVESGGGLVQAGGSLRLSCAASGRISARYVMGWYRQAPGKERELVAAISWSGDRTYYADSVKGRFTISRDNAKNTVYLQMNSLKPEDTAVYYCANGFYSRLAYGYGYWGQGTQVTVSS”, the “polyreactivity (PSR sort gate)” value is reported as “high polyreactivity”.
Consider “QVQLVESGGGLVQAGGSLRLSCAASGSTFYQYVMGWYRQAPGKESELVAAISSSGGSTYYADSVKGRFTISRDNAKNTVYLQMTSLKPEDTAVYYCAVDNYRGYGHDYYWGQGTQVTVSS”, for which the “polyreactivity (PSR sort gate)” value was “low polyreactivity”.
Consider “QVQLVESGGGLVQAGGSLRLSCAASGLTFQSYAMGWYRQAPGKEREFAYYADSVKGRFTMSRDNAKNTVYLQMNSLKPEDTAVYYCNGADDEGDRPITQVGYDYWGQGTQVTVSS”, for which the “polyreactivity (PSR sort gate)” value is given as “low polyreactivity”.
Consider “QVQRVESGGGLVQAGGSLRLRCAASGSILYHNTMGWYIQAPGKEREFVASISANGGSTYYADSVKGRFTISRDNAKNTVYLQMNSLKPEDTAVYYCAARVADYPLVGGSSYNRMEYWGQGTQVTVSS”, for which the “polyreactivity (PSR sort gate)” value is reported as “low polyreactivity”.
In the case of “QVQLVESGGGLVQAGGILRLSCAASGRTFGLYAMGWYRQAPGKERELVASITRSGVSTTYADSVKGRFTISRDNAKNTVYLQMNSLKPVDTAVYYCNTDYTGPDGTDEYDYWGQGTQVTVSS”, the “polyreactivity (PSR sort gate)” value is recorded as “low polyreactivity”.
As to “QVQLVESGGGLVQAGGSLRLSCAASGSILGTYAMGWYRQAPGKERELVAAISWNGGSTYYADSVKGRFTISRDNAKNTVYLQMNSLKPEYTAVYYCAARQWSQGWYDYWGQGTQVTLSS”, the “polyreactivity (PSR sort gate)” value is listed as “high polyreactivity”.
In the case of “QVQLVESGGGLVQAGGSLRLSCAASGSIFGGYAMGWYRQAPGKERELVAAISFSGGSTYYADSVKGRFTISRDNAKNTVYSQMNSLKPEDTAVYYCAADPYYSYLFDYWGQGTQVTVSS”, the “polyreactivity (PSR sort gate)” value is “low polyreactivity”.
In the case of “QVQLVESGGGLVQAGGSLRLSCAASGSTSDSYAMGWYRQAPGKERELVAAISRGTNTYYADSVKGRFTISRDNAKNTVYLQLNRLKPEDTAVYYCNKVQYLRKYWVTPTGQRFGYWGQGTQVTVSS” it was “high polyreactivity”.
As to “QVQLVESGGGLVQAGGSLRLSCAASGYIFLANAMGWYRQAPGKVRELVAAITSGGGGTYYADSVKGRFTFSRDNAKNTVYLQMNSLKPEDTAVYYCAADHGRDGSSFEYWGQGTQVTVSS”, the “polyreactivity (PSR sort gate)” value is “low polyreactivity”.
As for “QVQLVESGGGLVQAGGSLRLSCAASGLIFYPYAMGWYRQAPGKERELVAAITSDGSTYYADSVKGRFTISRDNAKNTVYLQMNSLKPEDTAVYYCAVVVAYFDDDYGLSWFYEYDYWGQGTQVTVSS”, the “polyreactivity (PSR sort gate)” value is recorded as “low polyreactivity”.
In the case of “QVQLVESGGGLVQAGGSLRLSCAASGRTFTYYTMGWYRQAPGKERELVAAITWSGGRTYYADSVKGRFTISRDNAKYTVYLQMNSLKPEDTAVYYCAKPPQGTYDYWGQGTQVTVSS” it was “low polyreactivity”.
On to “QVQLVESGGGLVQAGGSLRLSCAASGITVYLYAMGWYRQAPGKERELVAAISSSGGSTYYADSVKGRFTISRDNAKNTVYLQMNSLKPEDTAVYYCAAVYYTSVTIYDYWGQGTQVTVSS”, for which the “polyreactivity (PSR sort gate)” value is recorded as “high polyreactivity”.
Regarding “QVQLVESGGGLVQAGGSLRLSCAASGLTLRNYAMGWYRQAPGKERELVAAITTGGGRTYYADSVKGRFTISRDYAKNTVFLQMKSLKPEDTAVYYCAAEGAILSSDKQSLWRFDYWGQGTQVTVSS”, the “polyreactivity (PSR sort gate)” value was “low polyreactivity”.
In the case of “QVQLVESGGGLVQAGGSLRLSCAASGFIFGGDPMGWYRQARGSDRELVAAISSSGGRTYYADSVKRRFTISRDNAKNNVYLQLNSLKPEDTAVYSCAVPRFGSAAKRYYYWGQGTQVTVTS”, the “polyreactivity (PSR sort gate)” value was “high polyreactivity”.
In the case of “QVQLVESGGGLVQAGGSLRLSCAASGISIRSYAMGWYRQAPGKERELVAAIRSGGSTSYADSVKGRFTISRDNAKNTVYLLMNSLKPEDTAVYYCAAGGYVPLPDITFWKFGYWGQGTQVNVSS” it was “low polyreactivity”; in that of “QVQLVESGGGLVQAGGSLRLSCAASGFIFPYNAMGWYRQAPGKERELVAGITSSGGGTYYADSVKGRFTISRDNAKNTVYLQMNSLKPEDTAVYYCNKVWSYHLYPYDYWGQGTQVTVSS”, “high polyreactivity”.
For “QVQLVESGGGIVQAGGSLRLSCAASGFIFVLYAMGWYRQAPGKERELVASISSTGSTYYADSVKGRFTISRENAKNTVYLQMNSLIPEDTAVYYCNLFVFDPEDFWGEGTQVTVSS”, the “polyreactivity (PSR sort gate)” value is recorded as “low polyreactivity”.
On to “QVQLVESGGGLVQAGGSLRLSCAASGLIFYRYAMGWYRQAPAKERELVADITRDSGSTSYADSVKGRFTISRDYAKNTVYLQMNSLKPEDTAVYYCNAGWVYTASGRQYYITYDYWGQGTQVTVSS”, for which the “polyreactivity (PSR sort gate)” value is listed as “high polyreactivity”.
With “QVQLVESGGGLVQAGGSLRLSCAASGRTLFTIAMGWYRQAPGKERELLAAISIGGTTYYADSVKGRFTISRDYAKNTVYLQMNSLKPEDTAVYYCNKVRRFHSEYGYWGQGTQVTVSS”, the “polyreactivity (PSR sort gate)” value is listed as “high polyreactivity”.
For “QVQLVESGGGLVQAGGSLRLSCAASGIIFDEYAMGWYRQAPGKERELVATISSGGDTNYADSVKGRFTISRDNAKHTFYLQMNSLKPEDTALYYCAATVYDGYSPYDYDYWGQGTQVTVSS”, the “polyreactivity (PSR sort gate)” value is on record as “low polyreactivity”.
For “QVQLVESGGGLVQAGGSLRLICAASGIIFTRYAMGWYRQAPGKERELVAAISTRGGSTYYADSVKGRFTISRDNAMNTVYLQMNSLKPEDTAVYYCAATNAKDGEMDYWGQGTQVTVSS”, the “polyreactivity (PSR sort gate)” value is “high polyreactivity”.
In the case of “QVQLVESLVGLVQAVGSLRLSCAAYGFIFAFDSMGCYRHAPRKERELVAAIRTGGSKNYADSVKGRFTISRDNAKTTVYLQMNSLKPEDTAVYNCAANGRVGFWRWERDYWGQGTQVTVSS” it was “high polyreactivity”.
For the sequence “QVQLVESGGGLVQAGGSLRLSCAASGSIFNPYAMGWYRQAPGKERELVAAISYTGGRTYYADSVKGRFTISRDNAKNTVYLQMNSLKPEDTAVYYCAAGHYVYWYRYQLGRYNYWGQGTQVTVSS”, the “polyreactivity (PSR sort gate)” value is listed as “high polyreactivity”.
“QVQLVESGGGLVQAGGSLRLSCAASGRTFARHVMGWYCQAPGKVRELVAGITTSGGSTYYADSVKGRFTISRDNPKNTGYFQMNSLKPEDTAVYYCATDRQRYYRTVRSPIFNYWGQGTQVTVSS”: the “polyreactivity (PSR sort gate)” value was “high polyreactivity”.
For “QVQLVESGGGLVQEGASLRLICAASGRTSYRYAMGWNRQAPGKERELVAAISFGGGSTYYADSVKGRFTISRDYAKNTVYLQMNSLKPEDTAVYYCATDRVKYRNIYTDTGFDYWGQGTQVTVSS” the value was “high polyreactivity”; for “QVQLVESGGGLVQAGGSLRLSCAASGNTIIRYPMGWYRPAPGKERELVAAISYSGGRTYYADSVKGRFTISRDSAKNTVYLQMNRLKPEDSAVLYCNAASRYGGDYWGQGSQVTVSS”, “high polyreactivity”.
As to “QVQLVESGGGLVQAGGSLRLSCAASGYTFSDNAIGWYRQAPGKERELVAAITSGVSTYYADSVKGRFTISRDNAKNTVYLQMNSLKPEDTAVYYCAKDVAVYADLYQGAPYGYWGQGTQVTVSS”, the “polyreactivity (PSR sort gate)” value is recorded as “low polyreactivity”.
Regarding “QVQLVESGGGLVQEGGSLRLSCAASGITFAFYTMGRYRQAPGKERELVAAISYSGGRTYYADSVKGRFTISRDNAMNTVYLQMNSLKAEDTAVYYCAVETWWDYDYWGQGTQVTVSS”, the “polyreactivity (PSR sort gate)” value is “high polyreactivity”.
For “QVHLVESGGGLVQAGGSLRLSCAASGIIFRRYAMGWYRQAPGKERELVAAISSRGGSTYYADSVKRRFTISRDNAKNTVYLQMNSLKPEDTAVYYCAKGFSGTGGSGDFGYWGQGTQVTVSS”, the “polyreactivity (PSR sort gate)” value is “high polyreactivity”.
Consider “QVQLVESGGGLVQAGGSLRLSSAASGSTFGPYAMGWYRQAPGKERELVAAISRRGTSTYYADSVKGRFTISRDNAKNTVYLQMNSLKPEDTAVYYCNAVTSSFFNRDSDYWGQGNQVTVSS”, for which the “polyreactivity (PSR sort gate)” value is listed as “high polyreactivity”.
For “QVQLVESGGGLVQAGGSLRLSCASSGRTFSGYAMGWYRQAPGKERELVASITWSGGSTYYADSVKGRFTISRDNAKNTVYLQMNSLKPDDTAVYYCARDSPRGRVGFNYWGQGTQVTVSS”, the “polyreactivity (PSR sort gate)” value is “low polyreactivity”.
In the case of “QVQLVESGGGLVQAGGSLRLSCAASGLTFPVYAMGWYRQAPGKERELVAAISKSGGNTYYADSVKGRFTISRDNAKNTVYLQMNSLKPEDTAVYYCAAGYLSGNYARYGYWGQGTQVTVSS” it was “high polyreactivity”.
In the case of “QVQLVESGGGLVQAGGSLRLSCAASGIIFEGNVMGWYRQAPGKERELVAAITSDTSTNYADSVKGRFTISRDNAKNSVYLQMNSLKPEDTAVYYCDALRRYPRPNIYGYWGQGTQVTVSS”, the “polyreactivity (PSR sort gate)” value is given as “low polyreactivity”.
Consider “QVQLVESGGGLVQAGGSLRLSCAASGLIFRLYAMGWYRQAPGKERELVAALSISGGSTYYADSVKGRFTLSRDNAKNTVYLQMNSLKPEDTAVYYCAARYYRGGPYYKYDYWGQGTQVTVSS”, for which the “polyreactivity (PSR sort gate)” value is “high polyreactivity”.
In the case of “QVQLVESAGGLVQAGGSLRLSCAASGSILDRYAMGWDRQAPGKERELVAAITYSSGRTYYADSVKGRFTISRDNAKNTVYLQMNSLKPEDTAVYYCAARPFKRSNGGGQYYYWGQGTQLTVSS” it was “high polyreactivity”; in that of “QVQLVESGGGLVQAGGSLRLICAASGFTFAKYAMGSYTQAPGKERQLVAGITGNSGTTYYADSVKGRFTISRDNAKNTVYLQMNSLKPEDTAVYYCAAEEVSWNGTGDYWGQGTQVTVSS”, “high polyreactivity”.
As to “QVQLVESGGGLVQAGGSLRLSCAASGITFSNYAIGWYRQAPGKERELVAAISKRGGSTYYADSVKGRFTISRDNAKNTVYLQMNSLKPEDTAVYYCAAAGVRVYVRSGLDYWGQGTQVTVSS”, the “polyreactivity (PSR sort gate)” value is given as “high polyreactivity”.
For the sequence “QVQLVESGGGLVQAGGSLRLSCAASGSTFDKYPLGWYRQAPGKERELVAAITWGGGSTYYADSVKGRFTISRDNAKNTVYLQMNSLKPEDTAVYYCAAEQGSSVLYDSWGQGTQVTVSS”, the “polyreactivity (PSR sort gate)” value was “low polyreactivity”.
For “QVQLVESGGGLVQAGGSLRLSCAASGITFADNAMGWYRQAPGKERELVASISKSSGSTYYADSVKGRFTISRDNAKNTVYLQMNSLKPEDTAVYYCATDPYVRRSPSWYDYWGQGTQVTVSS” the value was “low polyreactivity”.

(Values after the nanobody polyreactivity screen of Harvey et al. (2022).)
